Data from paper PMC4267639, “The Mtr4 ratchet helix and arch domain both function to promote RNA unwinding”.
pKd: −log10 of the molar value.

How the values were obtained:
Assay in all cases: fluorescence anisotropy
Settings in all cases: FA: 40 mM MOPS pH 6.5, 100 mM NaCl, 0.5 mM MgCl2, 5% glycerol, 0.01% NP-40 substitute, 2 mM DTT, 60 nM RNA, 30 C; EMSA conditions not in material
[1] = biological target: T1, Mtr4 E1033A-archless E1033A (Saccharomyces cerevisiae) (UniProt P47047)
T1 sequence: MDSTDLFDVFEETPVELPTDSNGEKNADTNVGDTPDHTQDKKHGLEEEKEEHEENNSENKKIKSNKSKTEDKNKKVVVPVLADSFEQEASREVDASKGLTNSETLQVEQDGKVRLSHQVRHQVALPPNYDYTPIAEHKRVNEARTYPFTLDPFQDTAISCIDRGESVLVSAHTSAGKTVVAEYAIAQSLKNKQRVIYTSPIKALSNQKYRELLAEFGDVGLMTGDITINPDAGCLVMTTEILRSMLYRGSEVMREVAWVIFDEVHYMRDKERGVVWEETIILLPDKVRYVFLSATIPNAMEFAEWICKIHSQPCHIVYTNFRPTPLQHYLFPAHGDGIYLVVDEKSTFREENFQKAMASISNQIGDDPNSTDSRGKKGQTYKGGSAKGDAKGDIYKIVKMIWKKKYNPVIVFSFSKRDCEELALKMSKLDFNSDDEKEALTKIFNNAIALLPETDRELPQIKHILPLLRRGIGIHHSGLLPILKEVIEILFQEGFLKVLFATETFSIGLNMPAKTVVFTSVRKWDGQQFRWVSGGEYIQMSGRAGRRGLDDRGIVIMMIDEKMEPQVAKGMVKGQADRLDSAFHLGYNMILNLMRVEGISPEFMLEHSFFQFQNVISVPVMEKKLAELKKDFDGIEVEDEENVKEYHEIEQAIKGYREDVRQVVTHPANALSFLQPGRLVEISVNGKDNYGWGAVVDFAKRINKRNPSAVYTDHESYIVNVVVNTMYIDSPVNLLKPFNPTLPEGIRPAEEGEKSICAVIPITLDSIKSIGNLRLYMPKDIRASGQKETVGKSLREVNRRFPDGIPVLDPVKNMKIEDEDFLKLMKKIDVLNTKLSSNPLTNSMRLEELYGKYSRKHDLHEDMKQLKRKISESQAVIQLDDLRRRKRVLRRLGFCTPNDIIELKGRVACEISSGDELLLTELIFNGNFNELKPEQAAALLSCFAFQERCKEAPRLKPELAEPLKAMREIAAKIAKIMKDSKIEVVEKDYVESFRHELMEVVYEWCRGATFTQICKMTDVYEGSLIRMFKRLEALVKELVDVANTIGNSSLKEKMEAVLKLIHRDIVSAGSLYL

[2] = biological target: T2, Mtr4 R1030A-archless R1030A (Saccharomyces cerevisiae) (UniProt P47047)
T2 sequence: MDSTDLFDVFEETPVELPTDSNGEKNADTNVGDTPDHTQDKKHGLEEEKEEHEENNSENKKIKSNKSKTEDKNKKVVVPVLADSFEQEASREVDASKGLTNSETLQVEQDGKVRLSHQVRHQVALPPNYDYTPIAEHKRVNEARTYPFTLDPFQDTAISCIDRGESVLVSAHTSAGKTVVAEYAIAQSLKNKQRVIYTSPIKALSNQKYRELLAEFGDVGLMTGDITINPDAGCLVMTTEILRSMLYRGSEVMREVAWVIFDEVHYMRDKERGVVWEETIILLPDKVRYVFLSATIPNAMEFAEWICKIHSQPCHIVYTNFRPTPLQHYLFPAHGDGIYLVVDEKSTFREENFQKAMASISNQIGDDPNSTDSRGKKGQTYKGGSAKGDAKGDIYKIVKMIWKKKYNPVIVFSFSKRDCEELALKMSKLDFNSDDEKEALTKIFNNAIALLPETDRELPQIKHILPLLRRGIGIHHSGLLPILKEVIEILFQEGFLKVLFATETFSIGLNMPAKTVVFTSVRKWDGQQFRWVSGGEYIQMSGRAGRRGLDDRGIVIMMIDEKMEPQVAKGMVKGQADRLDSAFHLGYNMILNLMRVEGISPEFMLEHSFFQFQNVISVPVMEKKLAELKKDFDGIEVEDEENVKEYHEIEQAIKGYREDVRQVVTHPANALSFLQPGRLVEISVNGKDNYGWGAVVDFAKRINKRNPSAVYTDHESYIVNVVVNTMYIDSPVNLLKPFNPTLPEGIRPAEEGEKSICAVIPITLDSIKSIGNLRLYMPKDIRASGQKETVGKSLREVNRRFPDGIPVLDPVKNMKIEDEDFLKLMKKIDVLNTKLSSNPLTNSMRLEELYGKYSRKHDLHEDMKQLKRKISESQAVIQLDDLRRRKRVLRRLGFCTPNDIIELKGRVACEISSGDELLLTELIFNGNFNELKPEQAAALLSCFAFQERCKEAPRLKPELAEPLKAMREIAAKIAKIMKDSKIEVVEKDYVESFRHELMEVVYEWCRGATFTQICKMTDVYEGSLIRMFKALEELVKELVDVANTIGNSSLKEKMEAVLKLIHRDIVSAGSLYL

[3] = biological target: T3, Mtr4 archless (Saccharomyces cerevisiae) (UniProt P47047)
T3 sequence: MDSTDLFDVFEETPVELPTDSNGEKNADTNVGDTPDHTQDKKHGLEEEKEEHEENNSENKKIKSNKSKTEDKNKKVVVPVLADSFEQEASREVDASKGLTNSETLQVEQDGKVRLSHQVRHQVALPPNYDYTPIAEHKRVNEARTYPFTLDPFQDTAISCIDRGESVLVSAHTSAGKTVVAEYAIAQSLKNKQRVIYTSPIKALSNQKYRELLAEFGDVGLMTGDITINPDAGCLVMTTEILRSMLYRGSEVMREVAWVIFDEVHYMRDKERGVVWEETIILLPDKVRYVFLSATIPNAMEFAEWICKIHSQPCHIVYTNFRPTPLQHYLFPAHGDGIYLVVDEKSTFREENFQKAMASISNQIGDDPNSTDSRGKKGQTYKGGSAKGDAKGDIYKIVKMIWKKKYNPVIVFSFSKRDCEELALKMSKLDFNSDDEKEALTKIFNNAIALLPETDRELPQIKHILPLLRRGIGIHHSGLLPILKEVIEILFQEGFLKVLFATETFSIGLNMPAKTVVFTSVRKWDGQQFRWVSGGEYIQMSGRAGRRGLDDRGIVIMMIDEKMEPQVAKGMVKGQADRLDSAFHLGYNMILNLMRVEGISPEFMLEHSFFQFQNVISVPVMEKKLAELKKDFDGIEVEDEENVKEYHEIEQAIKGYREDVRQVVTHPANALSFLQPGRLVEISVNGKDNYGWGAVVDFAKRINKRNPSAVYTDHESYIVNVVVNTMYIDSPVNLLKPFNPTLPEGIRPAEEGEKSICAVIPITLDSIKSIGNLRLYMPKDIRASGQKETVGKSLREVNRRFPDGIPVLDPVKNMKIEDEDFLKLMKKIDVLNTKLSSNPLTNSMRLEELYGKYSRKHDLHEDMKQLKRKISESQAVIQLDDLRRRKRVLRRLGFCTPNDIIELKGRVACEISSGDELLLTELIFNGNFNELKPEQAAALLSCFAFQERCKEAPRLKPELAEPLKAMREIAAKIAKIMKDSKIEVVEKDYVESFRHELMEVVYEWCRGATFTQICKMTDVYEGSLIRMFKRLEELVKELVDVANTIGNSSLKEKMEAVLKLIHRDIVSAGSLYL

GCGUCUUUACGGUGCUUAAAAA / AGCACCGUAAAGACGC [poly(A) substrate R22A/R16, fluorescein]
pKd [1]: 5.32 | pKd [2]: < 5.00 | pKd [3]: 5.35
